Source: paper PMC3622925

Target: Trichomonas vaginalis virus 1 strain UH9 coat protein (Trichomonas vaginalis virus 1 (TVV1), strain UH9)
Assay: cryo-EM structure

“Trichomonas vaginalis virus 1 strain UH9 coat protein (natural protein)” was tested, and the stoichiometry N (subunits per capsid) was 120.
